This data set is described as follows: soluble on expression in E. coli; label from the status in PepcDB or PDB records.
Turning to “INLEDPRSFLGRELPGFAQFDTEILLAGQGTDYTNMPAESPPPSKVMEEEREANLAEIEKQQTQSDNAQKDPPKQTTGDKKVVFIYHTHNTESYLPLLKGETDPDMARHSKANVTLVGDMFGQALESQGIGATVNKTDIQSKLNKKGLNYARSYDESRPVVKDALASNKNLQYIIDIHRDSRRKKDTTATIKGKSYARVAFVVGKKSKNFEENYKIASELHKLMEKKYPGLSTGVFSKGSPGDNGVYNQDLTDRALLLEFGGVDNNLEELQRAANAAADVFSEMYWDAEKVNAASGE”, the “soluble on expression in E. coli” value is “not soluble”.
The entry for “MQYINYRENRRRGTADFPLEYYHVTASHPQYVMSFHWHVEFELIRILSGSLTVTIDEIEFLAEAGDSIFIPAGSIHSGIPDDCVYECLVFDMNMLMNKTDSCCRFLRQITDHEVSVQTHYPKICNTIHRTLWTLFDAAASKKEGYQLVVFGAMYQFFGTLFSEGFCKNAPDEEHRSHKRILQLKQALEFMESSYNLPLTLEEISGSVNMSPKYFCRFFHEMTHRTPIDYLNYYRIERACYQLITTNLSITEIAYASGFNDLSYFIKTFKKYKGTTPKKYLKI” is “not soluble”; for “EMGTADLGPSSVPTPTNVTIESYNMNPIVYWEYQIMPQVPVFTVEVKNYGVKNSEWIDACINISHHYCNISDHVGDPSNSLWVRVKARVGQKESAYAKSEEFAVCRDGKIGPPKLDIRKEEKQIMIDIFHPSVFVNGDEQEVDYDPETTCYIRVYNVYVRMNGSEIQYKILTQKEDDCDEIQCQLAIPVSSLNSQYCVSAEGVLHVWGVTTEKSKEVCITIFNSSIKGSLWIPVVAALLLFLVLS” it is “soluble”; for “MTINASNSATKKDKPAKYTMIKQYICEHIESGEWPQNAKVPSENELTQQFDVSRMTARRALQELTEQGILVRSQGAGTFVATFKSQSSLLEIRNISDEISDRGHQHKAKQLLLNSTAVTDEIAILLNLKNNEDVFYSEILHYENDDAIQLEQRFVNVSLVPDYLLQNFTQITPHEYLSSVAPLTEATHEIEAILASDEICQQLDIQSTTPCLQVKRRTWSKQGVVSVAILTSPGDKYRLGSHLKF” it is “not soluble”.
In the case of “QDDSRYTKFLTQHHDAKPKGRDDRYCERMMKRRSLTSPCKDVNTFIHGNKSNIKAICGANGSPYRENLRMSKSPFQVTTCKHTGGSPRPPCQYRASAGFRHVVIACENGLPVHFDESFFSL” it was “soluble”; in that of “MVDYHYFKSKLNHFYGRYVGYNQRPVFFDIDQTFPELNHITRHFPDIKREFENVQANVKEFPRYHDIDPGESAISNTTEKNWNVFMLYLLGYQLKEARLLCPELCNLLEGIPHLIQAFFSILEPGKSIPLHEGPYIGYLRYHLGIHVPQNNPPQILVNNQTYTWKEGEAVLFDDSWPHEVRNTSDDYRAVLIIDVLRPMPFLPQLVNQFVTHVIARYFYGRKVMKRAMQYGGEVKPLAL”, “not soluble”.
In the case of “MAVSVGEGPDTKPTARGQPAAVGRVVVLSGPSAVGKSTVVRCLRERIPNLHFSVSATTRCPRPGEVDGVDYHFIDPTRFQQLIDQGELLEWAEIHGGLHRSGTLAQPVRAAAATGVPVLIEVDLAGARAIKKTMPEAVTVFLAPPSWQDLQARLIGRGCETADVIQRRLDTARIELAAQGDFDKVVVNRRLESACAELVSLLVGTAPGSPGVPRGKLAAALEHHHHHH” it was “soluble”; in that of “MGSDKIHHHHHHMHRSKAALVLAGGGVAGAAYEIGALCAIDQVLEHLSVNEFDVYVGTSAGALISACLANNMSPRTLISVLESSLLGIDQLEPHHLYQLNITDLLYRAAHLPGALVQAIQRWVREGGEVSLLDLIETVAVGLPTGLYDSRSLEQYLRAALEQPGRSNRFADLDHELMIVATDLDTGERAIFGLPPLDNVPISLAVCASAAIPIFYRPVRIGDHDYIDGGLRGTASLDVAIERGAELIVCINPMVPFDNRRHPPGAAISDQGIQRIGNQVFRTFIHAGLHYHIKQVRRRHPEVDIILIEPSRQDRTMFAENTMRFHTRMTIARHGFESVARQLCEHYPYYRAMLARHGITISDERIRQDLRNLQMAGDNPHLVRAALVTGGSLHTAPAGLASTLAELDRLLSRLEVTR”, “not soluble”.
Consider “MKAINIALDGPAAAGKSTIAKRVASELSMIYVDTGAMYRALTYKYLKLNKTEDFAKLVDQTTLDLTYKADKGQCVILDNEDVTDFLRNNDVTQHVSYVASKEPVRSFAVKKQKELAAEKGIVMDGRDIGTVVLPDADLKVYMIASVEERAERRYKDNQLRGIESNFEDLKRDIEARDQYDMNREISPLRKADDAVTLDTTGKSIEEVTDEILAMVSQIK”, for which the “soluble on expression in E. coli” value was “soluble”.
As to “MDLRDLKTFLHLAESRHFGRSARAMHVSPSTLSRQIQRLEEDLGQPLFVRDNRTVTLTEAGEELRVFAQQTLLQYQQLRHTLDQQGPSLSGELHIFCSVTAAYSHLPPILDRFRAEHPSVEIKLTTGDAADAMEKVVTGEADLAIAGKPETLPGAVAFSMLENLAVVLIAPALPCPVRNQVSVDKPDWSTVPFIMADQGPVRRRIELWFRRHKISNPQIYATVGGHEAMVSMVALGCGVALLPEVVLENSPEPVRNRVMILERSDEKTPFELGVCAQKKRLHEPLIDAFWKILPN”, the “soluble on expression in E. coli” value is “soluble”.
The entry for “MGSDKIHHHHHHMKEKTVAIFNGYYIPHLGGVERYTYNIAKKLTEKGYRVIIITTQHDENLTNEEIQEGIKIYRLPIKNLWKNRYPFLKKNRIYHSLIEKIEAESIDYYVANTRFHLPAMLGVKMAKAKGKEAIVIEHGSSYLTLNNPVLDFMLRKIEQLLIGRVKKDTSLFYGVSNEASEWLKTFDIKAKGVLPNAVAVDEYFNQKIEKDEKKLTISYAGRLIPQMKGVEILLSTFSKLSKERKNLELIIAGDGPLLNEVKRKYSQKNIKFLGYVPYEKVLEIDAKSDVFVLMSRSEGFATAMLEAAMLENVIITTPTVGGARDIMPDETYGYIIENNETKLFETLTKVLDNKEHMRLMQKKISKNVLENFTWEQSAKQFIKVFNELDEK” is “not soluble”; for “MHLRTYYPTVVLSDIHLGTQHSKTEEVTHFLKSINCDRLILNGDIIDGWHLQKSGLGKWKAKHTDFFKVIMKMMENFGTQVIYVRGNHDDFLDNLAPLNFYNIRIVKDCIYESHGRRYYVTHGDIFDTVTTQMKWLAKLGDTGYTFLLWLNKVYNLRRMKQGKPYYSLSQSIKNRVKTAVSYISDFEKELVGLARAKKCDGVICGHIHHPANTFYEDIHYLNSGDWVETLSALTEDEDGNWTIRYFDSGLLKEDNHKEKQTISITIAS” it is “not soluble”; for “MDSENAVKTTYGEFNGKKPFAVMLLGTDTGALDRTEKRGNTDTIIVVVVNPKKKNYTMISIPRDTMADMVGDDSNDVQKINAAYSIGGAKMAMKTVSNLLNIPVKYYALVNMGGLMKLVDYVGGIYVTPPLTFTYSGFPFKKRVRQHLNGQAALAYSRMRYDDPQGDYGRQKRQREVITKLVQKLATADSLTNFSKIANNLSSNVKTNLSFQALKSILANYSDCTSSSDSDYLHGYSTYVNDAAYQIAPTSELQRISNKIRKLLGLKTATVSNRETELNTLNETAGFKFGSGETQNYTLEHHHHHH” it is “soluble”.
With “SDLDYGGVPLWINRFLGEPSVLTLKDRIDPGWYRAVNTQSCPLECDCPIQWPTAIYCDHRGLNQLPSGLPFRLQYLFLQGNNITSLGSRAFDNTTYLRWLILDHNELLSEQLDNVLFSSLTRLVNLFINHNNLTKVPAGLPSGLKQLRLAYNHIEKISEGDFQNLDSLTLILLQGNRLKTIEEGDFKGLGALNLLDLSHNFLDTFPKHLPPSVQQLYLSNNSLTGLSENSLHAFSGLRYLRLGHNKLRNERLDPGAFNLTSLVELDLSYNRLTEIPSVPITLQYLYLEVNHIQEFNVSSFCRTVGPTSYSRMKILRLDGNKLEYHKLPPDWVFCLRVLHNIYI”, the “soluble on expression in E. coli” value is listed as “soluble”.
In the case of “MSLTQSSKLIAVIVANIDDYFSTELFKGISSILESRGYIGVLFDANADIEREKTLLRAIGSRGFDGLILQSFSNPQTVQEILHQQMPVVSVDREMDACPWPQVVTDNFEAAKAATTAFRQQGYQHVVVLTSELELSRTRQERYRGILAAAQDVDVLEVSESSYNHSEVHQRLTQLITQNDQKTVAFALKERWLLEFFPNLIISGLIDNQTVTATGFADTDFIRRMEPKLTLITQNPFLMGASSAEIMLRQLAGEKVAPEKMVIPAKLQEGHHHHHH” it was “soluble”; in that of “MVSNAYQGIGSEYETLLKASGRENEVFKKRVGKDRVMATTVHGWWQETMWQRSSSLFTDGRICSCWRLSPTSSRGLQPTYQRKRDFTTGRYGKNACG”, “not soluble”.
Regarding “MATPTFDTIEAQASYGIGLQVGQQLSESGLEGLLPEALVAGIADALEGKHPAVPVDVVHRALREIHERADAVRRERFKAMAAEGVKYLEENREKDGVNSTESGLQFRVLTQGEGAIPARTDRVRVHYTGKLIDGTVFDSSVARGEPAEFPVNGVIAGWIEALTLMPVGSKWELTIPQELAYGERGAGASIPPFSTLVFEVELLEIL”, the “soluble on expression in E. coli” value is on record as “not soluble”.
The entry for “MGSDKIHHHHHHMSRQKFVNRERELAFLEERYASGDAELLIIYGRRRIGKTELLLHFARNKEHVYFLASEKPYRDNLRELQRMMGDFLGDRLFSRIEFSDIDELLIEFSKRVRGRRVVLIIDEFPYLIEHYKPVLSLIQRAWDMELSKSDLLLILCGSSVSSMETEVLGYKSPLYGRRTGQWMVDELPFWSLREFFPSYSTEDIVKVYGVLGGIPAYLLQFDPEKSFDENVVEKVLSKGAFLYEEAEILLKEEMREPANYFIILQAIASGRSRFGEIVNATGLDKSLVSKYLNVLEKLRIVEREVPVTASRKEALKRGKYSITDNYLAFWFRYVLPNKSYLETGLGKEIWERSKEDFKEYMGGVFERLLRKPEVFTKLTNFRFTKIGRWWHKGEEIDLVALNEREKKALFIEVKWKDLSEREARGILKDLKRKVKLVGLDEWGKHYGLVAKNVKGKDKIKEEGWLAWDLEDFERLGVSG” is “not soluble”.
The entry for “MGSDKIHHHHHHMNFILELLRREQGRQQKELEFSQLPYQQRVAQLKEQKLPLFFYKYHSLHSHNPNKPQEKWEHASDYLINSRFYLSRPANFNDPFDMRAYFTDSVPKEKKRYFLDQLLKIRTPQLTEKDRVLEVKKLLDNPEKLRTIHKLTLDEAVDSFGVSCLSTAPCNILMWSHYANHHRGIAFQFNFAIDIFSFKWLQPVSYSNDFPGIEYFERRDNKYSIALLTKHHGWEYEKEWRIVKPNGAGTYQDFNSKILTGVILGCRIDRKDEDKIRTMIEQRKEQGLSSVKLYKLRQHESRYKLVIKHVE” is “not soluble”; for “MAFDAARYVHRYYASLAPAPGNEYPRLRAWEYLWEYVWDPSRSWDDLTAPEQLDTTALHLGFYLANWGMFRGSSGLLQNSNLDLMKALARQLFSGAGPELFELSLVDFAGNGARLAHNRKLLETVLGSMDALSSRVSWTDTLKSKILLGVWGEFPALDRHYVAACRALYPRRGLTSVNGGTLTALHRLIGEERLSFPRLETARKGLLYPTGRLADMAFFQYGLENALEHHHHHH” it is “soluble”.
